# Values of other authors in patent publication US20220241413A1, “COMBINATION THERAPIES USING CD-38 ANTIBODIES” (Takeda Pharmaceutical Company Limited, priority 2019, published 2022).
# Like-named read-outs stand apart in the source and are kept apart here.
# What was measured:
# [1] = cited from earlier work
# [2] = tested on: NK cells; conditions: IV, patients with RRMM, doses up to 24 mg/kg; cited from earlier work
# [3] = tested on: RBCs and platelets; conditions: cited from earlier work
# [4] = IV, patients with RRMM, doses up to 24 mg/kg; cited from earlier work
# [5] = cited from earlier work; remark: listed apart in the source
# [6] = SC formulation with hyaluronidase
substance,measurement,setting,value
"MOR202: anti-CD38 IgG1 antibody, used clinically via IV infusion",Grade ≥3 TEAE: hypertension,"[1]; RRMM, IV infusion",9%
same,Grade ≥3 TEAE: leukopenia,"[1]; RRMM, IV infusion",11%
same,Grade ≥3 TEAE: lymphopenia,"[1]; RRMM, IV infusion",18%
same,TEAE at any grade: anemia,"[1]; RRMM, IV infusion",34%
same,TEAE at any grade: fatigue,"[1]; RRMM, IV infusion",32%
same,TEAE at any grade: infusion-related reactions (IRRs),"[1]; RRMM, IV infusion",30%
same,TEAE at any grade: leukopenia,"[1]; RRMM, IV infusion",30%
same,TEAE at any grade: lymphopenia,"[1]; RRMM, IV infusion",25%
same,TEAE at any grade: nausea,"[1]; RRMM, IV infusion",25%
same,patients with Grade ≥3 TEAEs,"[1]; RRMM, IV infusion",64%
same,infections,"[1]; in vivo, iv",59%
"daratumumab: first approved anti-CD38 drug, anti-CD38 IgG1 antibody",comparable depletion of NK cells (to >90% with AB79),[2],not achieved
same,binding to RBCs and platelets,[3],strongly bind
same,mean Cmax,[4],> 500 µg/mL
same,"incidence of IRR, Grade 3 or higher",[5]; IV administration,≤ 9%
same,"incidence of IRR, all grades",[5]; IV administration,≥ 50%
same,"incidence of IRR, Grade 3 or higher",[5]; [6],8%
same,"incidence of IRR, all grades",[5]; [6],16%
same,Grade 3 and 4 TEAE: hypertension,[5]; SC,8%
same,Grade 3 and 4 TEAE: lymphopenia,[5]; SC,20%
same,Grade 3 and 4 TEAE: neutropenia,[5]; SC,8%
same,Grade 3 and 4 TEAE: thrombocytopenia,[5]; SC,8%
same,"injection site reactions (induration, erythema, discoloration, hematomas)",[5]; SC,16.7 % of patients
same,persistence of positive indirect Coombs test results after the last infusion,[5]; binding to CD38 on RBCs,up to 6 months
same,"patients with severe and serious IRRs, including anaphylactic reactions","[5]; human, in vivo",approximately half
isatuximab: anti-CD38 IgG1 antibody,binding to RBCs and platelets,[3],strongly bind
